This is an account of results in US20060104978.

For series [1], the target named is full-length PDGF-C expressed in transfected COS-1 cells (latent PDGF-CC), Q9NRA1.
The target of series [2] is PDGF-CC deletion mutant ΔN210, Q9NRA1.
Series [3] concerns the target PDGF-CC deletion mutant ΔN150, Q9NRA1.
Series [4] has as its target full-length PDGF-D expressed in transfected COS-1 cells (latent PDGF-DD), Q9GZP0.
The target of series [5] is cleavage site mutant of mouse PDGF-C (-K-K-S-K- replaced by four alanines), Q8CI19.
Series [6] has as its target T1, CUBc-myc (CUB domain of PDGF-C, residues 1 to 165, with a human c-myc tag), Q9NRA1.
T1 chain: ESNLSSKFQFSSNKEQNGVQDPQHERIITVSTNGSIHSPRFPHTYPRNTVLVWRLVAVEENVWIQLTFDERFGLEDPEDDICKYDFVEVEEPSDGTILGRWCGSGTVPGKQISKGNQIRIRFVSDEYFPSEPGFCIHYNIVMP

Series [7] has as its target PDGF-CC deletion mutant ΔN170, Q9NRA1.
In series [8] the target is PDGF-CC deletion mutant ΔN190, Q9NRA1.
Series [9] addresses T2, chimeric PDCUBPC (CUB region of PDGF-D, hinge/core region of PDGF-C), Q9GZP0.
T2 chain: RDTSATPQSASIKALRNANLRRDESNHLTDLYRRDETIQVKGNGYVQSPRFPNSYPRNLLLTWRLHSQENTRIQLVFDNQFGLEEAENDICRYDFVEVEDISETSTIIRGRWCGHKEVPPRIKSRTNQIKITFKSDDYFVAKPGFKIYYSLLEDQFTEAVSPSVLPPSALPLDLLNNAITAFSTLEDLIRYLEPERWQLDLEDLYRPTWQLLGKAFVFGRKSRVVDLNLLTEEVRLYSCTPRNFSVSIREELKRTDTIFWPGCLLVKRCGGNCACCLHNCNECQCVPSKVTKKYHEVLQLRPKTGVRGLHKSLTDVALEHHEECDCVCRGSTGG

In series [10] the target is PDGF-CC deletion mutant ΔN230, Q9NRA1.
Series [11] has as its target recombinant His6-tagged latent (full-length) PDGF-DD, Q9GZP0.
Series [12] deals with recombinant His6-tagged latent (full-length) human PDGF-CC, Q9NRA1.
Series [13] has as its target T3, endogenous latent PDGF-CC secreted by primary mouse fibroblasts, Q8CI19.
T3 chain: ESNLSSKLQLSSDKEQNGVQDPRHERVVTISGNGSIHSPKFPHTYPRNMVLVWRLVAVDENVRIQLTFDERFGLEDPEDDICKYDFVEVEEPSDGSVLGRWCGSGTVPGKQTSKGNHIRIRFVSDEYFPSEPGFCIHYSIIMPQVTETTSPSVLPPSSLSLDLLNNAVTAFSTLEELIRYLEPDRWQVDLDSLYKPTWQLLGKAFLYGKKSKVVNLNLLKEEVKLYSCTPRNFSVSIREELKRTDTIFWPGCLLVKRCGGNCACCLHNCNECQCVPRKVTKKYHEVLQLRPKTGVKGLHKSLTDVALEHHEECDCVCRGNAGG

B1: full-length human tPA expressed in transfected COS-1 cells (pSG5) (protein)
chain: SYQVICRDEKTQMIYQQHQSWLRPVLRSNRVEYCWCNSGRAQCHSVPVKSCSEPRCFNGGTCQQALYFSDFVCQCPEGFAGKCCEIDTRATCYEDQGISYRGTWSTAESGAECTNWNSSALAQKPYSGRRPDAIRLGLGNHNYCRNPDRDSKPWCYVFKAGKYSSEFCSTPACSEGNSDCYFGNGSAYRGTHSLTESGASCLPWNSMILIGKVYTAQNPSAQALGLGKHNYCRNPDGDAKPWCHVLKNRRLTWEYCDVPSCSTCGLRQYSQPQFRIKGGLFADIASHPWQAAIFAKHRRSPGERFLCGGILISSCWILSAAHCFQERFPPHHLTVILGRTYRVVPGEEEQKFEVEKYIVHKEFDDDTYDNDIALLQLKSDSSRCAQESSVVRTVCLPPADLQLPDWTECELSGYGKHEALSPFYSERLKEAHVRLYPSSRCTSQHLLNRTVTDNMLCAGDTRSGGPQANLHDACQGDSGGPLVCLNDGRMTLVGIISWGLGCGQKDVPGVYTKVTNYLDWIRDNMRP
As for B1, the “proteolytic cleavage in the cotransfection assay (SDS-PAGE, immunoblot)” value was “tPA released the growth factor domain of latent PDGFCC, and the fragment migrated as a 22 kDa species under reducing conditions” in series [1]; “neither of the two enzymes was able to cleave and activate latent PDGF-DD” in [4]. For the same protein, the “proteolytic cleavage in the cotransfection assay (immunoblot)” value was “neither chimeric PDCUBPC, nor the truncation mutants lacking the CUB domain, were efficiently cleaved” in [2]; “neither chimeric PDCUBPC, nor the truncation mutants lacking the CUB domain, were efficiently cleaved” in series [3]; “the mutant was resistant to tPA-mediated cleavage” in series [5]; “neither chimeric PDCUBPC, nor the truncation mutants lacking the CUB domain, were efficiently cleaved” in series [7]; “neither chimeric PDCUBPC, nor the truncation mutants lacking the CUB domain, were efficiently cleaved” in series [8]; “neither chimeric PDCUBPC, nor the truncation mutants lacking the CUB domain, were efficiently cleaved” in series [9]. Besides, the “proteolytic cleavage in the cotransfection assay (immunoblot)” value in [10] is “neither chimeric PDCUBPC, nor the truncation mutants lacking the CUB domain, were efficiently cleaved”. The “cleavage of full-length PDGF-CC by tPA in the cotransfection assay (immunoblot)” value in [6] is “the CUB domain efficiently competed for the interaction and processing of latent PDGF-CC by tPA”.

B2: tPA purified from human melanoma cells (T7776, Sigma) (protein)
chain: SYQVICRDEKTQMIYQQHQSWLRPVLRSNRVEYCWCNSGRAQCHSVPVKSCSEPRCFNGGTCQQALYFSDFVCQCPEGFAGKCCEIDTRATCYEDQGISYRGTWSTAESGAECTNWNSSALAQKPYSGRRPDAIRLGLGNHNYCRNPDRDSKPWCYVFKAGKYSSEFCSTPACSEGNSDCYFGNGSAYRGTHSLTESGASCLPWNSMILIGKVYTAQNPSAQALGLGKHNYCRNPDGDAKPWCHVLKNRRLTWEYCDVPSCSTCGLRQYSQPQFRIKGGLFADIASHPWQAAIFAKHRRSPGERFLCGGILISSCWILSAAHCFQERFPPHHLTVILGRTYRVVPGEEEQKFEVEKYIVHKEFDDDTYDNDIALLQLKSDSSRCAQESSVVRTVCLPPADLQLPDWTECELSGYGKHEALSPFYSERLKEAHVRLYPSSRCTSQHLLNRTVTDNMLCAGDTRSGGPQANLHDACQGDSGGPLVCLNDGRMTLVGIISWGLGCGQKDVPGVYTKVTNYLDWIRDNMRP
Turning to B2, the “in vitro cleavage with purified tPA (SDS-PAGE, immunoblot)” value is given as “PDGF-CC, but not PDGF-DD, is a substrate for tPA” in [11] and “PDGF-CC, but not PDGF-DD, is a substrate for tPA” in series [12].

B3: human neurotrypsin (NT) expressed in transfected COS-1 cells (pSG5) (protein)
chain: FDSVLNDSLHHSHRHSPPAGPHYPYYLPTQQRPPRTRPPPPLPRFPRPPRALPAQRPHALQAGHTPRPHPWGCPAGEPWVSVTDFGAPCLRWAEVPPFLERSPPASWAQLRGQRHNFCRSPDGAGRPWCFYGDARGKVDWGYCDCRHGSVRLRGGKNEFEGTVEVYASGVWGTVCSSHWDDSDASVICHQLQLGGKGIAKQTPFSGLGLIPIYWSNVRCRGDEENILLCEKDIWQGGVCPQKMAAAVTCSFSHGPTFPIIRLAGGSSVHEGRVELYHAGQWGTVCDDQWDDADAEVICRQLGLSGIAKAWHQAYFGEGSGPVMLDEVRCTGNELSIEQCPKSSWGEHNCGHKEDAGVSCTPLTDGVIRLAGGKGSHEGRLEVYYRGQWGTVCDDGWTELNTYVVCRQLGFKYGKQASANHFEESTGPIWLDDVSCSGKETRFLQCSRRQWGRHDCSHREDVSIACYPGGEGHRLSLGFPVRLMDGENKKEGRVEVFINGQWGTICDDGWTDKDAAVICRQLGYKGPARARTMAYFGEGKGPIHVDNVKCTGNERSLADCIKQDIGRHNCRHSEDAGVICDYFGKKASGNSNKESLSSVCGLRLLHRRQKRIIGGKNSLRGGWPWQVSLRLKSSHGDGRLLCGATLLSSCWVLTAAHCFKRYGNSTRSYAVRVGDYHTLVPEEFEEEIGVQQIVIHREYRPDRSDYDIALVRLQGPEEQCARFSSHVLPACLPLWRERPQKTASNCYITGWGDTGRAYSRTLQQAAIPLLPKRFCEERYKGRFTGRMLCAGNLHEHKRVDSCQGDSGGPLMCERPGESWVVYGVTSWGYGCGVKDSPGVYTKVSAFVPWIKSVTKL
B3: the “proteolytic cleavage in the cotransfection assay (SDS-PAGE, immunoblot)” value in series [1] is “neurotrypsin (NT) lacked proteolytic activity toward latent PDGF-CC”; in series [4], “neither of the two enzymes was able to cleave and activate latent PDGF-DD”.

B4: endogenous tPA of primary mouse fibroblasts (protein)
chain: SYRATCRDEPTQTTYQQHQSWLRPMLRSSRVEYCRCNSGLVQCHSVPVRSCSEPRCFNGGTCQQALYFSDFVCQCPDGFVGKRCDIDTRATCFEEQGITYRGTWSTAESGAECINWNSSVLSLKPYNARRPNAIKLGLGNHNYCRNPDRDLKPWCYVFKAGKYTTEFCSTPACPKGKSEDCYVGKGVTYRGTHSLTTSQASCLPWNSIVLMGKSYTAWRTNSQALGLGRHNYCRNPDGDARPWCHVMKDRKLTWEYCDMSPCSTCGLRQYKRPQFRIKGGLYTDITSHPWQAAIFVKNKRSPGERFLCGGVLISSCWVLSAAHCFLERFPPNHLKVVLGRTYRVVPGEEEQTFEIEKYIVHEEFDDDTYDNDIALLQLRSQSKQCAQESSSVGTACLPDPNLQLPDWTECELSGYGKHEASSPFFSDRLKEAHVRLYPSSRCTSQHLFNKTVTNNMLCAGDTRSGGNQDLHDACQGDSGGPLVCMINKQMTLTGIISWGLGCGQKDVPGVYTKVTNYLDWIHDNMKQ
Take B4: the “processing of latent PDGF-CC in medium of tPA-deficient against wild-type fibroblasts (immunoblot)” value in series [13] was “the generation of double species migrating as 22-25 kDa was reduced to less than 10%”.
